Laboratory results from US20140056903A1 (Regeneron, published 2014).

Tests used:
[1] = biological target: T1, human GFRα3 expressed with a C-terminal myc-myc-hexahistidine tag (human, UniProt O60609 32-374, biotinylated (sites not given) in ELISA format 2 and in the Octet cross-competition; not in SPR); test: SPR, Ab captured, 25C
T1 construct: also called hGFRα3-mmh; hGFRα3-mmH
Method: (§1) Antibodies were tested for binding to human GFRα3 expressed with either a C-terminal myc-myc-hexahistidine tag (hGFRα3-mmh; SEQ ID: 370, a C-terminal hFc tag (hGFRα3-hFc; SEQ ID:371), or a C-terminal mFc tag (hGFRα3-mFc; SEQ ID:372), as well as monkey GFRα3 expressed with a C-terminal myc-myc-hexahistidine tag (MfGFRα3-mmh; SEQ ID:373). Anti-GFRα3 antibodies were captured on either a goat anti-mouse IgG polyclonal antibody (GE Healthcare, #BR-1008-38) or a mouse anti-human IgG monoclonal antibody (GE Healthcare, #BR-1008-39) surface created through direct amine coupling to a Biacore CM5 sensor chip. Kinetic experiments were carried out using HBS-EP (10 mM HEPES, 150 mM NaCl, 3 mM EDTA, 0.05% Surfactant P20, at pH 7.4) or PBS buffer containing 0.05% v/v surfactant P20 as both the running buffer and the sample buffer. Binding to human GFRα3-mmh or monkey GFRα3-mmh was evaluated by injecting several concentrations ranging from 200 to 7.4 nM (3-fold dilutions) across the captured antibody surface. Binding to human GFRα3-mFc or human GFRα3-hFc was evaluated by injecting several concentrations ranging from 100 to 3.7 nM (3-fold dilutions) across the captured antibody surface. Antibody-antigen association was monitored for up to 4 minutes, while dissociation in buffer was monitored for up to 20 minutes. Kinetic association (kₐ) and dissociation (kd) rate constants were determined by processing and fitting the data to a 1:1 binding model using Scrubber 2.0c curve fitting software. Binding dissociation equilibrium constants (KD) and dissociative half-lives (t_{1/2}) were calculated from the kinetic rate constants as: KD (M)=kd/kₐ and t_{1/2} (min)=[ln 2/(60*kd)].

[2] = biological target: T2, human GFRα3 expressed with a C-terminal hFc tag (human); test: SPR, Ab captured, 25C
T2 construct: also called hGFRα3-hFc
Method: as §1

[3] = biological target: T3, monkey GFRα3 expressed with a C-terminal myc-myc-hexahistidine tag (monkey (Mf), UniProt O60609 32-374 (human entry), limits assumed); test: SPR, Ab captured, 25C
T3 construct: also called MfGFRα3-mmh; MfGFRα3-mmH
T3 chain: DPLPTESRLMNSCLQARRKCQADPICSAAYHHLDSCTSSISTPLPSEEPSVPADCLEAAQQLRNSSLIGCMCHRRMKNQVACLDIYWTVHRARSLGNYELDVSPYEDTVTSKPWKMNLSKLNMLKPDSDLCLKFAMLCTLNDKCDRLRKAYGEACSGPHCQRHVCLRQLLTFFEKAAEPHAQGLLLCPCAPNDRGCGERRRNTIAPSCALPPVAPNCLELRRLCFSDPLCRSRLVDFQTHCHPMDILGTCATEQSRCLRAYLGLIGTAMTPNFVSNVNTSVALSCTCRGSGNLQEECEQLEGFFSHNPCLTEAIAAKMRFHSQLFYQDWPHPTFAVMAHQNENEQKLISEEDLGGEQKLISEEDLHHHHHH
Method: as §1

[4] = biological target: T1, human GFRα3 expressed with a C-terminal …; test: SPR, Ab captured, 37C
Method: as §1

[5] = biological target: T2, human GFRα3 expressed with a C-terminal …; test: SPR, Ab captured, 37C
Method: as §1

[6] = biological target: T3, monkey GFRα3 expressed with a …; test: SPR, Ab captured, 37C
Method: as §1

[7] = biological target: T4, human GFRα3 on HEK293/hGFRα3/hRET/SRE-luc cells (human, UniProt O60609 32-382); test: cell-based or functional assay
T4 sequence: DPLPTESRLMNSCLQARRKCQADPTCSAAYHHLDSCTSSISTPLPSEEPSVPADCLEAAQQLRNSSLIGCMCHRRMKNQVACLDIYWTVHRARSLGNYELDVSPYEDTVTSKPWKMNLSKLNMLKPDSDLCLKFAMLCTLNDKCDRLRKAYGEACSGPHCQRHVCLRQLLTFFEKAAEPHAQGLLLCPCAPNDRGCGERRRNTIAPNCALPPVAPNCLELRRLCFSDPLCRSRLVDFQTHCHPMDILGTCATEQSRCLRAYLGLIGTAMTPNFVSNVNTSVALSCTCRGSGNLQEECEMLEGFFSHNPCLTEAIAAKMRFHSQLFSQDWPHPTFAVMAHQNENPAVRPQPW

B1: H1M2236N (antibody, V domains shown)
VH: EVQLLESGGNLVQPGGSLRLSCAASGFTFSSYAMTWVRQAPGKGLEWVSTISGSGTSTYYADSVKGRFTISRDNSRDTVFLQMNSLRAEDTAVYYCSKPSALRFLHWLCMDVWGQGTLVTVSS
VL: DIQMTQSPSSLSAFVGDRVTITCRASQDIRNYLDWFQQKPGKAPKSLIYAASNLQSGVPSRFGGSGSGTDFTLTINSLQPEDFVTYYCQQYNSYPPTFGGGTKVEIK
notes: chimeric, human variable and mouse constant domains (H1M)
Kd [1]: 0.275 nM | koff [1]: 0.000208 s⁻¹ | kon [1]: 760000 M⁻¹ s⁻¹ | t1/2 [1]: 56 min | Kd [2]: 0.0137 nM | koff [2]: 1.76e-05 s⁻¹ | kon [2]: 1.28e+06 M⁻¹ s⁻¹ | t1/2 [2]: 11 h | Kd [3]: 0.97 nM | koff [3]: 0.000286 s⁻¹ | kon [3]: 296000 M⁻¹ s⁻¹ | t1/2 [3]: 40 min | Kd [4]: 0.532 nM | koff [4]: 0.00055 s⁻¹ | kon [4]: 1.03e+06 M⁻¹ s⁻¹ | t1/2 [4]: 21 min | Kd [5]: 0.061 nM | koff [5]: 9.65e-05 s⁻¹ | kon [5]: 1.58e+06 M⁻¹ s⁻¹ | t1/2 [5]: 120 min | Kd [6]: 2.58 nM | koff [6]: 0.00112 s⁻¹ | kon [6]: 434000 M⁻¹ s⁻¹ | t1/2 [6]: 10 min

B2: H1M2243N (antibody, V domains shown)
VH: QVQLVQSGAEVKKPGASVKVSCKASGYTFTSYGIIWVRQAPGQGLEWMGWISGYNGNTNYTQNLQGRVTMTTDTSTTTAYMELRSLRSDDTAVYYCARWGIATRPYYYYGMDVWGQGTTVTVSS
VL: DIQMTQSPSSLSASVGDRVTITCRASQDITNYLAWFQQKPGKAPKSLIYAASSLQSGVPSKFSGSGSGTDFTLTISSLQPEDFATYYCQQYNSYPPTFGPGTKVDIK
notes: as for B1
Kd [1]: 2.04 nM | koff [1]: 0.000261 s⁻¹ | kon [1]: 128000 M⁻¹ s⁻¹ | t1/2 [1]: 44 min | Kd [2]: ≤ 0.0075 nM | koff [2]: ≤ 1e-06 s⁻¹ | kon [2]: 134000 M⁻¹ s⁻¹ | t1/2 [2]: 192 h | Kd [3]: 10.2 nM | koff [3]: 0.000658 s⁻¹ | kon [3]: 64600 M⁻¹ s⁻¹ | t1/2 [3]: 18 min | Kd [4]: 4.35 nM | koff [4]: 0.000595 s⁻¹ | kon [4]: 137000 M⁻¹ s⁻¹ | t1/2 [4]: 19 min | Kd [5]: 0.117 nM | koff [5]: 2.18e-05 s⁻¹ | kon [5]: 186000 M⁻¹ s⁻¹ | t1/2 [5]: 529 min | Kd [6]: 54.7 nM | koff [6]: 0.00275 s⁻¹ | kon [6]: 50200 M⁻¹ s⁻¹ | t1/2 [6]: 4 min

B3: H1M2207N (antibody, V domains shown)
VH: EVQLVESGGGLVQPGRSLRLSCAASGFTFNDYAMHWVRQAPGKGLEWVSGISWNSGNIGYADSVKGRFTISRDNAKNSLYLQMNSLRAEDTALYFCARDTRMATRPFDYWGQGTLVTVSS
VL: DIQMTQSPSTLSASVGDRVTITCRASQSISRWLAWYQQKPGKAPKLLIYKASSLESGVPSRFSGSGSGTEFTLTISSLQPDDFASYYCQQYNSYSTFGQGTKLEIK
notes: as for B1
Kd [1]: 16 nM | koff [1]: 0.0009 s⁻¹ | kon [1]: 56100 M⁻¹ s⁻¹ | t1/2 [1]: 13 min | Kd [2]: 0.163 nM | koff [2]: 2.6e-05 s⁻¹ | kon [2]: 159000 M⁻¹ s⁻¹ | t1/2 [2]: 7.4 h | Kd [3]: 97.2 nM | koff [3]: 0.00388 s⁻¹ | kon [3]: 39900 M⁻¹ s⁻¹ | t1/2 [3]: 3 min | Kd [4]: 10.8 nM | koff [4]: 0.00144 s⁻¹ | kon [4]: 133000 M⁻¹ s⁻¹ | t1/2 [4]: 8 min | Kd [5]: 0.531 nM | koff [5]: 0.000108 s⁻¹ | kon [5]: 203000 M⁻¹ s⁻¹ | t1/2 [5]: 107 min | Kd [6]: 145 nM | koff [6]: 0.00663 s⁻¹ | kon [6]: 45800 M⁻¹ s⁻¹ | t1/2 [6]: 2 min

B4: H2aM2234N (antibody, mouse IgG2, V domains shown)
VH: EVQLLESGGGLVQSGGSLRLSCAASGFSFNNYAMSWVRQAPGKGLEWVSFISGSGGSTYYADSVKGRFTISRDNSKNTLYLQMNSLRVEDTAVFYCAKDRYNYGTFFDYWGQGTLVTVSS
VL: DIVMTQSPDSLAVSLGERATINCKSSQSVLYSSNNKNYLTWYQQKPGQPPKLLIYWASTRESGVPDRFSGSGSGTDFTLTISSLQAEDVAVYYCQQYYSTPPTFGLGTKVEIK
notes: chimeric, mouse IgG2 Fc (H2M/H2aM); also called H2M2234N
Kd [1]: 1.08 nM | koff [1]: 0.000711 s⁻¹ | kon [1]: 657000 M⁻¹ s⁻¹ | t1/2 [1]: 16 min | Kd [2]: 0.101 nM | koff [2]: 9.6e-05 s⁻¹ | kon [2]: 950000 M⁻¹ s⁻¹ | t1/2 [2]: 2 h | Kd [3]: 1.34 nM | koff [3]: 0.000571 s⁻¹ | kon [3]: 427000 M⁻¹ s⁻¹ | t1/2 [3]: 20 min | Kd [4]: 3.43 nM | koff [4]: 0.00272 s⁻¹ | kon [4]: 793000 M⁻¹ s⁻¹ | t1/2 [4]: 4 min | Kd [5]: 0.116 nM | koff [5]: 0.000146 s⁻¹ | kon [5]: 1.26e+06 M⁻¹ s⁻¹ | t1/2 [5]: 79 min | Kd [6]: 4.91 nM | koff [6]: 0.00211 s⁻¹ | kon [6]: 429000 M⁻¹ s⁻¹ | t1/2 [6]: 5 min

B5: H4H2210N (antibody, human IgG4, V domains shown)
VH: EVQLLESGGGLVQPGGSLRVSCAASGFTFSTSAMSWVRQAPGKGLEWVSGISGIGGGSTYYADSVKGRFTISRDNSKNTLYLQMNSLRAEDTAVYFCAKFYKWNSYIFDLWGQGTMVTVSS
VL: EIVLTQSPDTLSLSPGERATLSCRASQSVSSSYFAWYQQKPGQAPRLLMYSASSRATGIPDRFSGSGSGTDFSLTISRLEPEDFAVYYCQQYGRSLTFGGGTKVEIK
IC50 (SRE-luc, HEK293/hGFRα3/hRET cells, 100 pM hARTEMIN-mmH) [7]: 2.9 nM

B6: H2aM2210N (antibody, mouse IgG2, V domains shown)
VH: EVQLLESGGGLVQPGGSLRVSCAASGFTFSTSAMSWVRQAPGKGLEWVSGISGIGGGSTYYADSVKGRFTISRDNSKNTLYLQMNSLRAEDTAVYFCAKFYKWNSYIFDLWGQGTMVTVSS
VL: EIVLTQSPDTLSLSPGERATLSCRASQSVSSSYFAWYQQKPGQAPRLLMYSASSRATGIPDRFSGSGSGTDFSLTISRLEPEDFAVYYCQQYGRSLTFGGGTKVEIK
notes: chimeric, mouse IgG2 Fc (H2M/H2aM); also called H2M2210N
Kd [1]: 12.8 nM | koff [1]: 0.000863 s⁻¹ | kon [1]: 67300 M⁻¹ s⁻¹ | t1/2 [1]: 13 min | Kd [2]: 0.22 nM | koff [2]: 3.69e-05 s⁻¹ | kon [2]: 168000 M⁻¹ s⁻¹ | t1/2 [2]: 5.22 h | Kd [3]: 28.9 nM | koff [3]: 0.0012 s⁻¹ | kon [3]: 41600 M⁻¹ s⁻¹ | t1/2 [3]: 10 min | Kd [4]: 15.8 nM | koff [4]: 0.00335 s⁻¹ | kon [4]: 212000 M⁻¹ s⁻¹ | t1/2 [4]: 3 min | Kd [5]: 0.242 nM | koff [5]: 7.66e-05 s⁻¹ | kon [5]: 316000 M⁻¹ s⁻¹ | t1/2 [5]: 151 min | Kd [6]: 76.4 nM | koff [6]: 0.00618 s⁻¹ | kon [6]: 80900 M⁻¹ s⁻¹ | t1/2 [6]: 2 min

B7: H1M2212N (antibody, V domains shown)
VH: EVQLLESGGGLVQPGGSLRLSCAASGFTFSSYAMSWVRQGPGKGLEWVSGISGSGGSTYNADSVKGRFTISRDNSKNTLYLQMNSLRAEDTAVYYCAKDSGTYWYYFDYWGQGILVTVSS
VL: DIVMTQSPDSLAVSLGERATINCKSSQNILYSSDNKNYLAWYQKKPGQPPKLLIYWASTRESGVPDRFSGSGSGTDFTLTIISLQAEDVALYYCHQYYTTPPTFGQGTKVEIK
notes: as for B1
Kd [1]: 0.197 nM | koff [1]: 0.000158 s⁻¹ | kon [1]: 800000 M⁻¹ s⁻¹ | t1/2 [1]: 73 min | Kd [2]: 0.0128 nM | koff [2]: 1.44e-05 s⁻¹ | kon [2]: 1.12e+06 M⁻¹ s⁻¹ | t1/2 [2]: 13.3 h | Kd [3]: 0.293 nM | koff [3]: 0.000112 s⁻¹ | kon [3]: 384000 M⁻¹ s⁻¹ | t1/2 [3]: 103 min | Kd [4]: 0.297 nM | koff [4]: 0.000303 s⁻¹ | kon [4]: 1.02e+06 M⁻¹ s⁻¹ | t1/2 [4]: 38 min | Kd [5]: 0.0413 nM | koff [5]: 6.17e-05 s⁻¹ | kon [5]: 1.49e+06 M⁻¹ s⁻¹ | t1/2 [5]: 187 min | Kd [6]: 0.294 nM | koff [6]: 0.00026 s⁻¹ | kon [6]: 884000 M⁻¹ s⁻¹ | t1/2 [6]: 44 min
